Results on one substance are retold here after article PMC4718742.

For this experiment, the target named is human CrkII (1–304) (human) (UniProt P46108). Kind of experiment: NMR titration.
human CrkII (1–304) (human), sequence (P46108 whole entry): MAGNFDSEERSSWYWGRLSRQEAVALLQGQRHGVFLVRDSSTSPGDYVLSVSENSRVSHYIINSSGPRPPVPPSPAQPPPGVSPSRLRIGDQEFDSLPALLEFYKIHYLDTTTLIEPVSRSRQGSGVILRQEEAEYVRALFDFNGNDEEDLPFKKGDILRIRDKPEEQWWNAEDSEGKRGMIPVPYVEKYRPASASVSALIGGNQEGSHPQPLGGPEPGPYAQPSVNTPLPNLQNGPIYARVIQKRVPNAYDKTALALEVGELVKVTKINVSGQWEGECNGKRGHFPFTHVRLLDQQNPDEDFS

Regarding “human CypA (1–165) (from UniProt P62937 1-165) (enzyme; other documents disagree on this pair)”, the Kd is 15 µM.
